Measured values: the supplement of paper PMC9112550, “Optimization of the antimicrobial peptide Bac7 by deep mutational scanning” (BMC Biology, 2022)

Test system: Escherichia coli TOP10
Test: shrunken log2 fold change of peptide-encoding DNA abundance (4.5 h post-induction vs induction); higher = less antimicrobial activity (less host growth inhibition)
Conditions: time post-induction: 4.5 h; library: site-saturation at positions 5, 18, 19, 20
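Further: peptides expressed intracellularly from a pBAD plasmid library in pooled LB shake-flask culture, induced with 0.3% L-arabinose, DNA abundance read by NGS, three biological replicates, DESeq2 with apeglm shrinkage.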

## RRIRSRPPRLPRPRPRPTQVPRP
  shrunken log2 fold change: 0.839

## RRIRSRPPRLPRPRPRPTREPRP
  shrunken log2 fold change: 0.536

## RRIRSRPPRLPRPRPRPTRVPRP
  shrunken log2 fold change: 0.872

## RRIRSRPPRLPRPRPRPTSCPRP
  shrunken log2 fold change: -0.0946

## RRIRSRPPRLPRPRPRPTTKPRP
  shrunken log2 fold change: 0.0807

## RRIRSRPPRLPRPRPRPTTMPRP
  shrunken log2 fold change: 0.0245

## RRIRSRPPRLPRPRPRPTVCPRP
  shrunken log2 fold change: 0.0523

## RRIRSRPPRLPRPRPRPTYIPRP
  shrunken log2 fold change: -0.598

## RRIRSRPPRLPRPRPRPTYKPRP
  shrunken log2 fold change: -0.495

## RRIRSRPPRLPRPRPRPTYYPRP
  shrunken log2 fold change: -0.42

## RRIRSRPPRLPRPRPRPVAAPRP
  shrunken log2 fold change: 0.432

## RRIRSRPPRLPRPRPRPVAHPRP
  shrunken log2 fold change: -0.0951

## RRIRSRPPRLPRPRPRPVCCPRP
  shrunken log2 fold change: 0.183

## RRIRSRPPRLPRPRPRPVCDPRP
  shrunken log2 fold change: 0.327

## RRIRSRPPRLPRPRPRPVCLPRP
  shrunken log2 fold change: 0.0459

## RRIRSRPPRLPRPRPRPVCQPRP
  shrunken log2 fold change: -0.569

## RRIRSRPPRLPRPRPRPVEGPRP
  shrunken log2 fold change: -0.00141

## RRIRSRPPRLPRPRPRPVEMPRP
  shrunken log2 fold change: 0.0369

## RRIRSRPPRLPRPRPRPVFCPRP
  shrunken log2 fold change: -0.024

## RRIRSRPPRLPRPRPRPVFFPRP
  shrunken log2 fold change: 0.142

## RRIRSRPPRLPRPRPRPVFWPRP
  shrunken log2 fold change: 0.365

## RRIRSRPPRLPRPRPRPVGYPRP
  shrunken log2 fold change: 0.093

## RRIRSRPPRLPRPRPRPVHLPRP
  shrunken log2 fold change: -0.177

## RRIRSRPPRLPRPRPRPVHQPRP
  shrunken log2 fold change: 0.0888

## RRIRSRPPRLPRPRPRPVLAPRP
  shrunken log2 fold change: 0.557

## RRIRSRPPRLPRPRPRPVLGPRP
  shrunken log2 fold change: 0.447

## RRIRSRPPRLPRPRPRPVLIPRP
  shrunken log2 fold change: -0.000674

## RRIRSRPPRLPRPRPRPVLLPRP
  shrunken log2 fold change: -0.315

## RRIRSRPPRLPRPRPRPVLPPRP
  shrunken log2 fold change: -0.167

## RRIRSRPPRLPRPRPRPVMAPRP
  shrunken log2 fold change: 0.304

## RRIRSRPPRLPRPRPRPVMCPRP
  shrunken log2 fold change: -0.173

## RRIRSRPPRLPRPRPRPVMNPRP
  shrunken log2 fold change: 0.0346

## RRIRSRPPRLPRPRPRPVNKPRP
  shrunken log2 fold change: -0.404

## RRIRSRPPRLPRPRPRPVNYPRP
  shrunken log2 fold change: -0.0921

## RRIRSRPPRLPRPRPRPVQKPRP
  shrunken log2 fold change: 0.178

## RRIRSRPPRLPRPRPRPVQNPRP
  shrunken log2 fold change: 0.0832

## RRIRSRPPRLPRPRPRPVRMPRP
  shrunken log2 fold change: 0.0776

## RRIRSRPPRLPRPRPRPVSQPRP
  shrunken log2 fold change: -0.0165

## RRIRSRPPRLPRPRPRPVSYPRP
  shrunken log2 fold change: -0.0884

## RRIRSRPPRLPRPRPRPVTNPRP
  shrunken log2 fold change: -0.0242

## RRIRSRPPRLPRPRPRPVVPPRP
  shrunken log2 fold change: 0.0433

## RRIRSRPPRLPRPRPRPVVQPRP
  shrunken log2 fold change: -0.0812

## RRIRSRPPRLPRPRPRPVWGPRP
  shrunken log2 fold change: 0.185

## RRIRSRPPRLPRPRPRPVWMPRP
  shrunken log2 fold change: 0.396

## RRIRSRPPRLPRPRPRPVWPPRP
  shrunken log2 fold change: 0.434

## RRIRSRPPRLPRPRPRPVYLPRP
  shrunken log2 fold change: -0.519

## RRIRSRPPRLPRPRPRPWAEPRP
  shrunken log2 fold change: 0.0168

## RRIRSRPPRLPRPRPRPWAKPRP
  shrunken log2 fold change: -0.00197

## RRIRSRPPRLPRPRPRPWCVPRP
  shrunken log2 fold change: -0.22

## RRIRSRPPRLPRPRPRPWDVPRP
  shrunken log2 fold change: 0.166

## RRIRSRPPRLPRPRPRPWEHPRP
  shrunken log2 fold change: 0.089

## RRIRSRPPRLPRPRPRPWELPRP
  shrunken log2 fold change: 0.637

## RRIRSRPPRLPRPRPRPWESPRP
  shrunken log2 fold change: 0.0145

## RRIRSRPPRLPRPRPRPWFQPRP
  shrunken log2 fold change: -0.246

## RRIRSRPPRLPRPRPRPWGEPRP
  shrunken log2 fold change: 0.00882

## RRIRSRPPRLPRPRPRPWGTPRP
  shrunken log2 fold change: -0.222

## RRIRSRPPRLPRPRPRPWHQPRP
  shrunken log2 fold change: -0.25

## RRIRSRPPRLPRPRPRPWIIPRP
  shrunken log2 fold change: -0.159

## RRIRSRPPRLPRPRPRPWLPPRP
  shrunken log2 fold change: 0.0131

## RRIRSRPPRLPRPRPRPWMGPRP
  shrunken log2 fold change: -0.238

## RRIRSRPPRLPRPRPRPWNFPRP
  shrunken log2 fold change: -0.0212

## RRIRSRPPRLPRPRPRPWNYPRP
  shrunken log2 fold change: 0.0149

## RRIRSRPPRLPRPRPRPWPIPRP
  shrunken log2 fold change: 0.0295

## RRIRSRPPRLPRPRPRPWPPPRP
  shrunken log2 fold change: 0.51

## RRIRSRPPRLPRPRPRPWQEPRP
  shrunken log2 fold change: 0.131

## RRIRSRPPRLPRPRPRPWQPPRP
  shrunken log2 fold change: 0.155

## RRIRSRPPRLPRPRPRPWRAPRP
  shrunken log2 fold change: 0.183

## RRIRSRPPRLPRPRPRPWRCPRP
  shrunken log2 fold change: 0.0757

## RRIRSRPPRLPRPRPRPWRHPRP
  shrunken log2 fold change: -0.106

## RRIRSRPPRLPRPRPRPWRNPRP
  shrunken log2 fold change: -0.0428

## RRIRSRPPRLPRPRPRPWRYPRP
  shrunken log2 fold change: -0.336

## RRIRSRPPRLPRPRPRPWSQPRP
  shrunken log2 fold change: -0.00693

## RRIRSRPPRLPRPRPRPWSSPRP
  shrunken log2 fold change: 0.0531

## RRIRSRPPRLPRPRPRPWTCPRP
  shrunken log2 fold change: 0.00516

## RRIRSRPPRLPRPRPRPWTSPRP
  shrunken log2 fold change: 0.0101

## RRIRSRPPRLPRPRPRPWVFPRP
  shrunken log2 fold change: 0.0645

## RRIRSRPPRLPRPRPRPWVIPRP
  shrunken log2 fold change: -0.201

## RRIRSRPPRLPRPRPRPWVMPRP
  shrunken log2 fold change: -0.0894

## RRIRSRPPRLPRPRPRPWWAPRP
  shrunken log2 fold change: -0.0137

## RRIRSRPPRLPRPRPRPWWIPRP
  shrunken log2 fold change: 0.0584

## RRIRSRPPRLPRPRPRPYACPRP
  shrunken log2 fold change: -0.0148

## RRIRSRPPRLPRPRPRPYADPRP
  shrunken log2 fold change: -0.179

## RRIRSRPPRLPRPRPRPYAPPRP
  shrunken log2 fold change: -0.205

## RRIRSRPPRLPRPRPRPYCTPRP
  shrunken log2 fold change: -0.256

## RRIRSRPPRLPRPRPRPYDNPRP
  shrunken log2 fold change: -0.0962

## RRIRSRPPRLPRPRPRPYDWPRP
  shrunken log2 fold change: -0.102

## RRIRSRPPRLPRPRPRPYEDPRP
  shrunken log2 fold change: -0.129

## RRIRSRPPRLPRPRPRPYGAPRP
  shrunken log2 fold change: -0.318

## RRIRSRPPRLPRPRPRPYHEPRP
  shrunken log2 fold change: -1.19

## RRIRSRPPRLPRPRPRPYIHPRP
  shrunken log2 fold change: -0.737

## RRIRSRPPRLPRPRPRPYIMPRP
  shrunken log2 fold change: -0.845

## RRIRSRPPRLPRPRPRPYKPPRP
  shrunken log2 fold change: -0.195

## RRIRSRPPRLPRPRPRPYLHPRP
  shrunken log2 fold change: -0.757

## RRIRSRPPRLPRPRPRPYLIPRP
  shrunken log2 fold change: -0.363

## RRIRSRPPRLPRPRPRPYNIPRP
  shrunken log2 fold change: -0.579

## RRIRSRPPRLPRPRPRPYNKPRP
  shrunken log2 fold change: -1.01

## RRIRSRPPRLPRPRPRPYNRPRP
  shrunken log2 fold change: -0.267

## RRIRSRPPRLPRPRPRPYPEPRP
  shrunken log2 fold change: -0.355

## RRIRSRPPRLPRPRPRPYPMPRP
  shrunken log2 fold change: -0.035

## RRIRSRPPRLPRPRPRPYQAPRP
  shrunken log2 fold change: -0.0507

## RRIRSRPPRLPRPRPRPYQFPRP
  shrunken log2 fold change: 0.0245

## RRIRSRPPRLPRPRPRPYQQPRP
  shrunken log2 fold change: -2.39

## RRIRSRPPRLPRPRPRPYSNPRP
  shrunken log2 fold change: -0.549

## RRIRSRPPRLPRPRPRPYSYPRP
  shrunken log2 fold change: -0.393

## RRIRSRPPRLPRPRPRPYVLPRP
  shrunken log2 fold change: -0.277

## RRIRSRPPRLPRPRPRPYVTPRP
  shrunken log2 fold change: -0.266

## RRIRSRPPRLPRPRPRPYYQPRP
  shrunken log2 fold change: -0.608

## RRIRTRPPRLPRPRPRPAACPRP
  shrunken log2 fold change: 0.0816

## RRIRTRPPRLPRPRPRPAAEPRP
  shrunken log2 fold change: 0.351

## RRIRTRPPRLPRPRPRPAAKPRP
  shrunken log2 fold change: 0.217

## RRIRTRPPRLPRPRPRPACSPRP
  shrunken log2 fold change: 0.19

## RRIRTRPPRLPRPRPRPADIPRP
  shrunken log2 fold change: -0.0781

## RRIRTRPPRLPRPRPRPAEPPRP
  shrunken log2 fold change: 0.392

## RRIRTRPPRLPRPRPRPAEYPRP
  shrunken log2 fold change: -0.162

## RRIRTRPPRLPRPRPRPAFVPRP
  shrunken log2 fold change: -0.163

## RRIRTRPPRLPRPRPRPAGGPRP
  shrunken log2 fold change: 0.304

## RRIRTRPPRLPRPRPRPAHNPRP
  shrunken log2 fold change: -0.215

## RRIRTRPPRLPRPRPRPAHTPRP
  shrunken log2 fold change: 0.09

## RRIRTRPPRLPRPRPRPAHWPRP
  shrunken log2 fold change: 0.882

## RRIRTRPPRLPRPRPRPAKIPRP
  shrunken log2 fold change: 0.0299

## RRIRTRPPRLPRPRPRPALVPRP
  shrunken log2 fold change: 0.0324

## RRIRTRPPRLPRPRPRPANTPRP
  shrunken log2 fold change: -0.181

## RRIRTRPPRLPRPRPRPAPDPRP
  shrunken log2 fold change: 0.15

## RRIRTRPPRLPRPRPRPAPTPRP
  shrunken log2 fold change: 0.0808

## RRIRTRPPRLPRPRPRPARIPRP
  shrunken log2 fold change: -0.0205

## RRIRTRPPRLPRPRPRPARQPRP
  shrunken log2 fold change: 0.263

## RRIRTRPPRLPRPRPRPASNPRP
  shrunken log2 fold change: -0.00255

## RRIRTRPPRLPRPRPRPASYPRP
  shrunken log2 fold change: -0.347

## RRIRTRPPRLPRPRPRPATDPRP
  shrunken log2 fold change: 0.313

## RRIRTRPPRLPRPRPRPATFPRP
  shrunken log2 fold change: -0.129

## RRIRTRPPRLPRPRPRPAVDPRP
  shrunken log2 fold change: -0.209

## RRIRTRPPRLPRPRPRPAVGPRP
  shrunken log2 fold change: 0.532

## RRIRTRPPRLPRPRPRPAVYPRP
  shrunken log2 fold change: -0.181

## RRIRTRPPRLPRPRPRPCDEPRP
  shrunken log2 fold change: -0.0429

## RRIRTRPPRLPRPRPRPCHEPRP
  shrunken log2 fold change: -0.0167

## RRIRTRPPRLPRPRPRPCHRPRP
  shrunken log2 fold change: -0.000687

## RRIRTRPPRLPRPRPRPCLQPRP
  shrunken log2 fold change: -0.0598

## RRIRTRPPRLPRPRPRPCMCPRP
  shrunken log2 fold change: -0.222

## RRIRTRPPRLPRPRPRPCNPPRP
  shrunken log2 fold change: -0.0887

## RRIRTRPPRLPRPRPRPCPEPRP
  shrunken log2 fold change: -0.0641

## RRIRTRPPRLPRPRPRPCQAPRP
  shrunken log2 fold change: -0.0455

## RRIRTRPPRLPRPRPRPCQTPRP
  shrunken log2 fold change: -0.0283

## RRIRTRPPRLPRPRPRPCRFPRP
  shrunken log2 fold change: -0.265

## RRIRTRPPRLPRPRPRPCRTPRP
  shrunken log2 fold change: -0.0391

## RRIRTRPPRLPRPRPRPCSFPRP
  shrunken log2 fold change: -0.625

## RRIRTRPPRLPRPRPRPCTMPRP
  shrunken log2 fold change: -0.0721

## RRIRTRPPRLPRPRPRPCTNPRP
  shrunken log2 fold change: -0.0102

## RRIRTRPPRLPRPRPRPCWGPRP
  shrunken log2 fold change: -0.234

## RRIRTRPPRLPRPRPRPCWPPRP
  shrunken log2 fold change: 0.0465

## RRIRTRPPRLPRPRPRPCWTPRP
  shrunken log2 fold change: -0.442
